Measurements: patent US20250090680A1

What was measured:
[1] = target: recombinant hGPC3-His (human) (UniProt P51654); test: Biacore SPR, antibody captured, hGPC3-His analyte, 1:1 model
[2] = target: recombinant human GPC3 protein (R&D Systems) (human) (UniProt P51654); test: binding ELISA on plate-coated recombinant hGPC3, detection with goat anti-human Fc secondary antibody and TMB
[3] = target: recombinant human GPC3 protein (R&D Systems) (human) (UniProt P51654); test: Octet (BLI) off-rate ranking of scFv
[4] = target: recombinant human GPC3 protein (R&D Systems) (human) (UniProt P51654); test: ELISA, plate-coated recombinant hGPC3, IgG detected with anti-human Fc
[5] = target: recombinant hGPC3-His (human) (UniProt P51654); test: Biacore SPR, antibody captured, hGPC3-His analyte, 1:1 model; reference ARD-103 IgG

Sequence of UniProt P51654 (P51654 25-559): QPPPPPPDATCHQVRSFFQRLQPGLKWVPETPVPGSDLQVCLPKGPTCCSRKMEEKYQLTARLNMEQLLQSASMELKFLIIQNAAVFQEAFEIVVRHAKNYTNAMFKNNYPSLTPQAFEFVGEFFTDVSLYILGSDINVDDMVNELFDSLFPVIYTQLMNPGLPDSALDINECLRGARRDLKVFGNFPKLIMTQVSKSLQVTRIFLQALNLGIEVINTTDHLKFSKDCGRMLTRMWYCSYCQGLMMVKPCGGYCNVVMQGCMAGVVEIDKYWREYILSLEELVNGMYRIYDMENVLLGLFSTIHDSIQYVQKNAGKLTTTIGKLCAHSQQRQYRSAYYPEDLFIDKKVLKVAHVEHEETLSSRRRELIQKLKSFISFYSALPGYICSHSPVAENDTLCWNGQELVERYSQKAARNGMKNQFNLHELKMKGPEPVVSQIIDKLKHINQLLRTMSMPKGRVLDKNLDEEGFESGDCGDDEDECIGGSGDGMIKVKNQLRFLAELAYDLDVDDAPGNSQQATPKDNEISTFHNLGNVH

Binder	Kd [1] [nM]	koff [1] [s⁻¹]	kon [1] [M⁻¹ s⁻¹]	EC50 [2] [nM]	koff [3] [s⁻¹]	EC50 [4] [nM]	fold of ka against ARD-103 [1] [fold]	fold change of ka against ARD-103 [5] [fold]
P3-A1 scFv clone (scFv, part only; not given: linker, domain order, tags, V domains shown, not shown: another chain or arm of the molecule; large carriers; small tags and cut ends) VH: QVQLVESGAEVKKPGASVKVSCKASGYTFTDYEMHWVRQAPGQGLEWMGALDPSTGDTAYSQKFKGRVTLTADKSTSTAYMELSSLTSEDTAVYYCTRFYSYTYWGQGTLVTVSS VL: DVVMTQSPLSLPVTPGEPASISCRSSQSLVHWNGNTYLHWYLQKPGQSPQLLIYKVSNRFSGVPDRFSGSGSGTDFTLKISRVEAEDVGVYYCAQNTHVPPTFGQGTKLEIK					0.000304			
P1-E6 scFv clone (scFv, part only; not given: linker, domain order, tags, V domains shown, not shown: another chain or arm of the molecule; large carriers; small tags and cut ends) VH: QVQLVESGAEVKKPGASVKVSCKASGYTFTDYEMHWVRQAPGQGLEWMGALDPKTGDTALSQKFKGRVTLTADKSTSTAYMELSSLTSEDTAVYYCTRFYSYTYWGQGTLVTVSS VL: DVVMTQSPLSLPVTPGEPASISCRSSSSLVHSNGNTYLHWYLQKPGQSPQLLIYKVSNRFSGVPDRFSGSGSGTDFTLKISRVEAEDVGVYYCLQNGIVPPTFGQGTKLEIK					0.00048			
P1-A1 scFv clone (scFv, part only; not given: linker, domain order, tags, V domains shown, not shown: another chain or arm of the molecule; large carriers; small tags and cut ends) VH: QVQLVESGAEVKKPGASVKVSCKASGYTFTDYEMHWVRQAPGQGLEWMGALDPKTGDTAYSQKFQGRVTLTADKSTSTAYMELSSLTSEDTAVYYCTRFYSYTYWGQGTLVTVSS VL: DVVMTQSPLSLPVTPGEPASISCRSSQSLVRSNGNTYLHWYLQKPGQSPQLLIYKVSNRFSGVPDRFSGSGSGTDFTLKISRVEAEDVGVYYCVQNTHVPPTFGQGTKLEIK					0.0003			
P6-D11 scFv clone (scFv, part only; not given: linker, domain order, tags, V domains shown, not shown: another chain or arm of the molecule; large carriers; small tags and cut ends) VH: QVQLVQSGAEVKKPGASVKVSCKASGYTFTDYEMHWVRQAPGQGLEWMGALDPKTGDEAYSQKFKGRVTLTADKSTSTAYMELSSLTSEDTAVYYCTRFYSYTYWGQGTLVTVSS VL: DVVMTQSPLSLPVTPGEPASISCRSEQSLVHSNGNTYLHWYLQKPGQSPQLLIYKVSNRFSGVPDRFSGSGSGTDFTLKISRVEAEDVGVYYCVQNGLFPPTFGQGTKLEIK					0.000122			
P3-F7 IgG variant of ARD-103 (antibody, V domains shown) VH: QVQLVESGAEVKKPGASVKVSCKASGYTFTDYEMHWVRQAPGQGLEWMGALDPKTGDTAYSQKFKGRVTLTADKSTSTAYMELSSLTSEDTAVYYCTRFYSYTYWGQGTLVTVSS VL: DVVMTQSPLSLPVTPGEPASISCRSSQSLVHSNGNTYLQWYLQKPGQSPQLLIYKVSNRFSGVPDRFSGSGSGTDFTLKISRVEAEDVGVYYCVQVTHVPPTFGQGTKLEIKR	8.46	0.000724	85600	0.1		0.1		
P1-B9 scFv clone (scFv, part only; not given: linker, domain order, tags, V domains shown, not shown: another chain or arm of the molecule; large carriers; small tags and cut ends) VH: QVQLVESGAEVKKPGASVKVSCKASGYTFTDYEMHWVRQAPGQGLEWMGALDPKTGDTALSQKFKGRVTLTADKSTSTAYMELSSLTSEDTAVYYCTRFYSYTYWGQGTLVTVSS VL: DVVMTQSPLSLPVTPGEPASISCRSSQSLVHSNGNTYLQWYLQKPGQSPQLLIYKVSNRFSGVPDRFSGSGSGTDFTLKISRVEAEDVGVYYCGQVTHVPPTFGQGTKLEIK					0.00027			
P1-G5 IgG variant of ARD-103 (antibody, V domains shown) VH: QVQLVESGAEVKKPGASVKVSCKASGYTFTDYEMHWVRQAPGQGLEWMGAIDPKTGDTAYSQKFKGRVTLTADKSTSTAYMELSSLTSEDTAVYYCTRFYSYTYWGQGTLVTVSS VL: DVVMTQSPLSLPVTPGEPASISCRSSQSLVHSNGNTYLQWYLQKPGQSPQLLIYKVSNRFSGVPDRFSGSGSGTDFTLKISRVEAEDVGVYYCSQVTHVPPTFGQGTKLEIKR	4.15	0.000326	78500	0.095		0.1		
P1-G5 scFv clone (scFv, part only; not given: linker, domain order, tags, V domains shown, not shown: another chain or arm of the molecule; large carriers; small tags and cut ends) VH: QVQLVESGAEVKKPGASVKVSCKASGYTFTDYEMHWVRQAPGQGLEWMGAIDPKTGDTAYSQKFKGRVTLTADKSTSTAYMELSSLTSEDTAVYYCTRFYSYTYWGQGTLVTVSS VL: DVVMTQSPLSLPVTPGEPASISCRSSQSLVHSNGNTYLQWYLQKPGQSPQLLIYKVSNRFSGVPDRFSGSGSGTDFTLKISRVEAEDVGVYYCSQVTHVPPTFGQGTKLEIK					0.000197			
P1-B9 IgG variant of ARD-103 (antibody, V domains shown) VH: QVQLVESGAEVKKPGASVKVSCKASGYTFTDYEMHWVRQAPGQGLEWMGALDPKTGDTALSQKFKGRVTLTADKSTSTAYMELSSLTSEDTAVYYCTRFYSYTYWGQGTLVTVSS VL: DVVMTQSPLSLPVTPGEPASISCRSSQSLVHSNGNTYLQWYLQKPGQSPQLLIYKVSNRFSGVPDRFSGSGSGTDFTLKISRVEAEDVGVYYCGQVTHVPPTFGQGTKLEIKR	3.33	0.00026	78000	0.095		0.1		
P6-D11 IgG variant of ARD-103 (antibody, V domains shown) VH: QVQLVQSGAEVKKPGASVKVSCKASGYTFTDYEMHWVRQAPGQGLEWMGALDPKTGDEAYSQKFKGRVTLTADKSTSTAYMELSSLTSEDTAVYYCTRFYSYTYWGQGTLVTVSS VL: DVVMTQSPLSLPVTPGEPASISCRSEQSLVHSNGNTYLHWYLQKPGQSPQLLIYKVSNRFSGVPDRFSGSGSGTDFTLKISRVEAEDVGVYYCVQNGLFPPTFGQGTKLEIKR	3.02	0.000324	107000	0.094		0.1	2	2
P1-D6 scFv clone (scFv, part only; not given: linker, domain order, tags, V domains shown, not shown: another chain or arm of the molecule; large carriers; small tags and cut ends) VH: QVQLVQSGAEVKNPGASVKVSCKASGYTFTDYEMHWVRQAPGQGLEWMGALDPFTGDTAYSQKFKGRVTLTADKSTSTAYMELSSLTSEDTAVYYCTRFYSYTYWGQGTLVTVSS VL: DVVMTQSPLSLPVTPGEPASISCRSSQSLVHSNGNTYLHWYLQKPGQSPQLLIYKVSNRFSGVPDRFSGSGSGTDFTLKISRVEAEDVGVYYCLQNGYVPPTFGQGTKLEIK					0.000193			
P3-F7 scFv clone (scFv, part only; not given: linker, domain order, tags, V domains shown, not shown: another chain or arm of the molecule; small tags and cut ends) VH: QVQLVESGAEVKKPGASVKVSCKASGYTFTDYEMHWVRQAPGQGLEWMGALDPKTGDTAYSQKFKGRVTLTADKSTSTAYMELSSLTSEDTAVYYCTRFYSYTYWGQGTLVTVSS VL: DVVMTQSPLSLPVTPGEPASISCRSSQSLVHSNGNTYLQWYLQKPGQSPQLLIYKVSNRFSGVPDRFSGSGSGTDFTLKISRVEAEDVGVYYCVQVTHVPPTFGQGTKLEIK					0.000319			

Results, then the binder that gave them:

Kd [1] [nM]	koff [1] [s⁻¹]	kon [1] [M⁻¹ s⁻¹]	EC50 [2] [nM]	koff [3] [s⁻¹]	EC50 [4] [nM]	fold of ka against ARD-103 [1] [fold]	fold change of ka against ARD-103 [5] [fold]	Binder
3.85	0.000185	48100	0.11					ARD-103 antibody (IgG) (antibody, V domains shown) VH: QVQLVESGAEVKKPGASVKVSCKASGYTFTDYEMHWVRQAPGQGLEWMGALDPKTGDTAYSQKFKGRVTLTADKSTSTAYMELSSLTSEDTAVYYCTRFYSYTYWGQGTLVTVSS VL: DVVMTQSPLSLPVTPGEPASISCRSSQSLVHSNGNTYLHWYLQKPGQSPQLLIYKVSNRFSGVPDRFSGSGSGTDFTLKISRVEAEDVGVYYCSQNTHVPPTFGQGTKLEIKR
2.38	0.000196	82300						P3-A1 IgG variant of ARD-103 (antibody, V domains shown) VH: QVQLVESGAEVKKPGASVKVSCKASGYTFTDYEMHWVRQAPGQGLEWMGALDPSTGDTAYSQKFKGRVTLTADKSTSTAYMELSSLTSEDTAVYYCTRFYSYTYWGQGTLVTVSS VL: DVVMTQSPLSLPVTPGEPASISCRSSQSLVHWNGNTYLHWYLQKPGQSPQLLIYKVSNRFSGVPDRFSGSGSGTDFTLKISRVEAEDVGVYYCAQNTHVPPTFGQGTKLEIKR
3.95	0.000299	75600						P1-E6 IgG variant of ARD-103 (antibody, V domains shown) VH: QVQLVESGAEVKKPGASVKVSCKASGYTFTDYEMHWVRQAPGQGLEWMGALDPKTGDTALSQKFKGRVTLTADKSTSTAYMELSSLTSEDTAVYYCTRFYSYTYWGQGTLVTVSS VL: DVVMTQSPLSLPVTPGEPASISCRSSSSLVHSNGNTYLHWYLQKPGQSPQLLIYKVSNRFSGVPDRFSGSGSGTDFTLKISRVEAEDVGVYYCLQNGIVPPTFGQGTKLEIKR
1.56	0.000172	110000						P1-A1 IgG variant of ARD-103 (antibody, V domains shown) VH: QVQLVESGAEVKKPGASVKVSCKASGYTFTDYEMHWVRQAPGQGLEWMGALDPKTGDTAYSQKFQGRVTLTADKSTSTAYMELSSLTSEDTAVYYCTRFYSYTYWGQGTLVTVSS VL: DVVMTQSPLSLPVTPGEPASISCRSSQSLVRSNGNTYLHWYLQKPGQSPQLLIYKVSNRFSGVPDRFSGSGSGTDFTLKISRVEAEDVGVYYCVQNTHVPPTFGQGTKLEIKR
3.62	0.00033	91300	0.11		0.1			P1-D6 IgG variant of ARD-103 (antibody, V domains shown) VH: QVQLVQSGAEVKNPGASVKVSCKASGYTFTDYEMHWVRQAPGQGLEWMGALDPFTGDTAYSQKFKGRVTLTADKSTSTAYMELSSLTSEDTAVYYCTRFYSYTYWGQGTLVTVSS VL: DVVMTQSPLSLPVTPGEPASISCRSSQSLVHSNGNTYLHWYLQKPGQSPQLLIYKVSNRFSGVPDRFSGSGSGTDFTLKISRVEAEDVGVYYCLQNGYVPPTFGQGTKLEIKR
